Source: IntAct's records for PubMed 24076405

B1: Centrosomal P4.1-associated protein (Homo sapiens), Q9HC77 (parent)
chain: MFLMPTSSELNSGQNFLTQWMTNPSRAGVILNRGFPILEADKEKRAAVDISTSFPIKGTHFSDSFSFINEEDSLLEEQKLESNNPYKPQSDKSETHTAFPCIKKGPQVAACHSAPGHQEENKNDFIPDLASEFKEGAYKDPLFKKLEQLKEVQQKKQEQLKRQQLEQLQRLMEEQEKLLTMVSGQCTLPGLSLLPDDQSQKHRSPGNTTTGERATCCFPSYVYPDPTQEETYPSNILSHEQSNFCRTAHGDFVLTSKRASPNLFSEAQYQEAPVEKNNLKEENRNHPTGESILCWEKVTEQIQEANDKNLQKHDDSSEVANIEERPIKAAIGERKQTFEDYLEEQIQLEEQELKQKQLKEAEGPLPIKAKPKQPFLKRGEGLARFTNAKSKFQKGKESKLVTNQSTSEDQPLFKMDRQQLQRKTALKNKELCADNPILKKDSKARTKSGSVTLSQKPKMLKCSNRKSLSPSGLKIQTGKKCDGQFRDQIKFENKVTSNNKENVTECPKPCDTGCTGWNKTQGKDRLPLSTGPASRLAAKSPIRETMKESESSLDVSLQKKLETWEREKEKENLELDEFLFLEQAADEISFSSNSSFVLKILERDQQICKGHRMSSTPVKAVPQKTNPADPISHCNRSEDLDHTAREKESECEVAPKQLHSLSSADELREQPCKIRKAVQKSTSENQTEWNARDDEGVPNSDSSTDSEEQLDVTIKPSTEDRERGISSREDSPQVCDDKGPFKDTRTQEDKRRDVDLDLSDKDYSSDESIMESIKHKVSEPSRSSSLSLSKMDFDDERTWTDLEENLCNHDVVLGNESTYGTPQTCYPNNEIGILDKTIKRKIAPVKRGEDLSKSRRSRSPPTSELMMKFFPSLKPKPKSDSHLGNELKLNISQDQPPGDNARSQVLREKIIELETEIEKFKAENASLAKLRIERESALEKLRKEIADFEQQKAKELARIEEFKKEEMRKLQKERKVFEKYTTAARTFPDKKEREEIQTLKQQIADLREDLKRKETKWSSTHSRLRSQIQMLVRENTDLREEIKVMERFRLDAWKRAEAIESSLEVEKKDKLANTSVRFQNSQISSGTQVEKYKKNYLPMQGNPPRRSKSAPPRDLGNLDKGQAASPREPLEPLNFPDPEYKEEEEDQDIQGEISHPDGKVEKVYKNGCRVILFPNGTRKEVSADGKTITVTFFNGDVKQVMPDQRVIYYYAAAQTTHTTYPEGLEVLHFSSGQIEKHYPDGRKEITFPDQTVKNLFPDGQEESIFPDGTIVRVQRDGNKLIEFNNGQRELHTAQFKRREYPDGTVKTVYANGHQETKYRSGRIRVKDKEGNVLMDTEL
partner: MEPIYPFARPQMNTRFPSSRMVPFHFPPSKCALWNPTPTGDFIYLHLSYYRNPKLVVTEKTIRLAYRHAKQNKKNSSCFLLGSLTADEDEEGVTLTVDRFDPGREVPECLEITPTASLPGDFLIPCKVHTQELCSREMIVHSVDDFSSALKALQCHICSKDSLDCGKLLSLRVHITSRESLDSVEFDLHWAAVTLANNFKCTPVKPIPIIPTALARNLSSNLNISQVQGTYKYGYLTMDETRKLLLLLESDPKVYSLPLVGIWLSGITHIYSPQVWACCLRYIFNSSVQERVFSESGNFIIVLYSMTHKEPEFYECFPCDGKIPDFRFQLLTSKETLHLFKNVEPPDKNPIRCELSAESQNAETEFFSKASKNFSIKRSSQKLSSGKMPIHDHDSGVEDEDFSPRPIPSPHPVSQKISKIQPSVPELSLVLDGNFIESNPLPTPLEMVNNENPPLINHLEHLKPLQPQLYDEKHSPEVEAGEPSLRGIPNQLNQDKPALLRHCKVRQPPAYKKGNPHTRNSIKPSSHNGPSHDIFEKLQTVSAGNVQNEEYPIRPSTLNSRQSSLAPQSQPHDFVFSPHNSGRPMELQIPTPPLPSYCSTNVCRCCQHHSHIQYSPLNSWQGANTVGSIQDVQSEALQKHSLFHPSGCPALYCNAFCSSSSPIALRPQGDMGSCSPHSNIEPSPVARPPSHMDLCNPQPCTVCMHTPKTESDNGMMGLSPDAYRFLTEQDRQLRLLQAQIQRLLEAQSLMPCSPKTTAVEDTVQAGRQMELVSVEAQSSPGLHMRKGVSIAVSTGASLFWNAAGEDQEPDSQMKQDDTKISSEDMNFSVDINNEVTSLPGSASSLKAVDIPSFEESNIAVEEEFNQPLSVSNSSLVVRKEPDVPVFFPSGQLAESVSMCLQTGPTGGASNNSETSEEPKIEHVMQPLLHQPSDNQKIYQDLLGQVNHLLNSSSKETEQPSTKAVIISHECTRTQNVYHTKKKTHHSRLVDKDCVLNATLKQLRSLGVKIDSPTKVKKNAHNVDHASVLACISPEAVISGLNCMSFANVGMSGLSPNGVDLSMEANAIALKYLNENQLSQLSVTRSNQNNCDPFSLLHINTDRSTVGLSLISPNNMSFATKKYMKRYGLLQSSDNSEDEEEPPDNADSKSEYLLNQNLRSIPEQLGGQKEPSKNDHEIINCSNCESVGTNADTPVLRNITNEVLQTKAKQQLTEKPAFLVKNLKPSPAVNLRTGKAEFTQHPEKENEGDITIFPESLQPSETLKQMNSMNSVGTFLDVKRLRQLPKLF
B2: SCL-interrupting locus protein (Homo sapiens), Q15468 (parent)
chain: B1 partner

Variants of: B1
Conditions: with stil_human STIL

Effect of a mutation on the interaction, decreasing interaction strength:
Y1210A
E1235K
E1235V
Y1208A
F1229A

Variants of: B2
Conditions: with cpap_human CPAP

Effect of a mutation on the interaction, decreasing interaction strength:
R405I
K419E
